Measured values published in article PMC3999109, “Dimerization Interface of 3-Hydroxyacyl-CoA Dehydrogenase Tunes the Formation of Its Catalytic Intermediate” (PLoS ONE, 2014).

T1: cHAD (Caenorhabditis elegans, UniProt P34439, Y209A)
T1 construct: gene F54C8.1; C-terminal GST tag cleaved; pEXS-CG vector, E. coli BL21(DE3)
T1 sequence (P34439 1-298 Y209A): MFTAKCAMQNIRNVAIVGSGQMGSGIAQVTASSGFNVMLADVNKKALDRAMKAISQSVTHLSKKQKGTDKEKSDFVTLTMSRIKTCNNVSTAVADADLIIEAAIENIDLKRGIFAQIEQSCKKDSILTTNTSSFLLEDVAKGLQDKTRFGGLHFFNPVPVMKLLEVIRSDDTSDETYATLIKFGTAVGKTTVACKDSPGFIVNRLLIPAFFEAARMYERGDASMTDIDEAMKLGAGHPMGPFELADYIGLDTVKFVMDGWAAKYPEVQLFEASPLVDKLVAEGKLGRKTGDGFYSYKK

T2: cHAD (Caenorhabditis elegans, UniProt P34439)
T2 construct: gene F54C8.1; C-terminal GST tag cleaved; pEXS-CG vector, E. coli BL21(DE3)
T2 sequence (P34439 1-298): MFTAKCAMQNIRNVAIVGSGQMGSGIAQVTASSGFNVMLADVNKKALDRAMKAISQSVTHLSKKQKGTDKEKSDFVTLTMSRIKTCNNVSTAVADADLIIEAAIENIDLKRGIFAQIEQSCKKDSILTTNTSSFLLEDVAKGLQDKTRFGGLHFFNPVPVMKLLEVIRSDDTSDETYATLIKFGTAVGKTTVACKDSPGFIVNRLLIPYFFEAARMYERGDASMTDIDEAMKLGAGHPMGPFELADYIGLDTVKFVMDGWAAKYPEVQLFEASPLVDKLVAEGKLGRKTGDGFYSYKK


Experiments:
cHAD [1] = molecular target: T1, cHAD; experiment: Trp-NADH FRET titration, ex […] nm, em […] nm, Hill fit; type: binding; details: 10 mM citrate/phosphate pH 7.0, 150 mM NaCl, ambient temperature, 0.58 µM protein, 0-340 µM NADH
cHAD [2] = molecular target: T2, cHAD; experiment: difference absorption spectroscopy of the ternary charge-transfer complex, […] nm; type: binding; details: 2 mM NAD+ with 2 mM acetoacetyl-CoA, 0.2 M citrate/phosphate pH 7.0, ambient temperature, 2 mg/ml protein; abortive ternary complex
purified protein = substrate: CC(=O)CC(=O)SCCNC(=O)CCNC(=O)[C@H](O)C(C)(C)COP(=O)(O)OP(=O)(O)OC[C@H]1O[C@@H](n2cnc3c(N)ncnc32)[C@H](O)[C@@H]1OP(=O)(O)O; experiment: purified protein; type: biochemical, Caenorhabditis elegans; details: 100 µM NADH (saturating), 0.1 M citrate/phosphate pH 7.0, 0.1 mM dithiothreitol, 298 K, 23 nM protein, AACoA 30-70 µM, 25.0 °C
[3] = molecular target: the molecule itself; experiment: SEC-MALS; SEC-LS/UV/RI; WTC-030S5 column, 20 mM MES pH 6.0, 100 mM sodium chloride; 100 µg protein injected, 0.5 ml/min
[4] = molecular target: the molecule itself; experiment: cross-linking; EGS, protein:EGS 1:50, on ice 40 min; protein diluted to 2 mg/ml in 0.2 M Na2HPO4, 0.1 M citrate pH 7.0; SDS-PAGE

Molecule	Trp-NADH FRET titration, ex 270 nm, em 460 nm, Hill fit (cHAD [1])	difference absorption spectroscopy of the ternary charge-transfer complex, 412 n (cHAD [2])	Km (purified protein)	Vmax (purified protein)	kcat (purified protein)	kcat/Km (purified protein)	stoichiometry N [3]	binding result [4]
NC(=O)C1=CN([C@@H]2O[C@H](COP(=O)(O)OP(=O)(O)OC[C@H]3O[C@@H](n4cnc5c(N)ncnc54)[C@H](O)[C@@H]3O)[C@@H](O)[C@H]2O)C=CC1 [NADH]	Wild type and Y209A mutant cHAD show exactly the same number of Hill coefficient	–	–	–	–	–	–	–
NC(=O)c1ccc[n+]([C@@H]2O[C@H](COP(=O)(O)OP(=O)(O)OC[C@H]3O[C@@H](n4cnc5c(N)ncnc54)[C@H](O)[C@@H]3O)[C@@H](O)[C@H]2O)c1 [NAD^+]	–	difference spectroscopy of cHAD·NAD^+·AACoA ternary complex	–	–	–	–	–	–
3-hydroxyacyl-CoA dehydrogenase from C. elegans, wild type (enzyme, Caenorhabditis elegans, 3-hydroxyacyl-CoA dehydrogenase (cHAD), Caenorhabditis elegans, WormBase WBGene00010035, GenBank CAA80153.1; N-terminal domain 9-194, loop 195-201 and C-terminal domain 202-297 described in the structure; vector pEXS-CG (derived from pET-22b(+)); also called cHAD; wild type cHAD; not shown: GST, C-terminal, cleaved) MFTAKCAMQNIRNVAIVGSGQMGSGIAQVTASSGFNVMLADVNKKALDRAMKAISQSVTHLSKKQKGTDKEKSDFVTLTMSRIKTCNNVSTAVADADLIIEAAIENIDLKRGIFAQIEQSCKKDSILTTNTSSFLLEDVAKGLQDKTRFGGLHFFNPVPVMKLLEVIRSDDTSDETYATLIKFGTAVGKTTVACKDSPGFIVNRLLIPYFFEAARMYERGDASMTDIDEAMKLGAGHPMGPFELADYIGLDTVKFVMDGWAAKYPEVQLFEASPLVDKLVAEGKLGRKTGDGFYSYKK	–	–	72.0 ± 13.4 µM	78 µmol/min/mg	45 s⁻¹	600000 M⁻¹ s⁻¹	2	–
3-hydroxyacyl-CoA dehydrogenase from C. elegans, R204A mutant (enzyme, Caenorhabditis elegans, 3-hydroxyacyl-CoA dehydrogenase (cHAD), Caenorhabditis elegans, WormBase WBGene00010035, GenBank CAA80153.1; as m1 with R204A; Made by overlapping PCR from the wild type plasmid, ligated into pEXS-CG (BamHI, EcoRI); also called cHAD R204A; source: E. coli BL21 (DE3), purified (same procedure as the wild type); not shown: GST, C-terminal, cleaved) MFTAKCAMQNIRNVAIVGSGQMGSGIAQVTASSGFNVMLADVNKKALDRAMKAISQSVTHLSKKQKGTDKEKSDFVTLTMSRIKTCNNVSTAVADADLIIEAAIENIDLKRGIFAQIEQSCKKDSILTTNTSSFLLEDVAKGLQDKTRFGGLHFFNPVPVMKLLEVIRSDDTSDETYATLIKFGTAVGKTTVACKDSPGFIVNALLIPYFFEAARMYERGDASMTDIDEAMKLGAGHPMGPFELADYIGLDTVKFVMDGWAAKYPEVQLFEASPLVDKLVAEGKLGRKTGDGFYSYKK	–	–	83.2 ± 9.7 µM	48 µmol/min/mg	28 s⁻¹	300000 M⁻¹ s⁻¹	–	binds
3-hydroxyacyl-CoA dehydrogenase from C. elegans, R204A/Y209A mutant (enzyme, Caenorhabditis elegans, 3-hydroxyacyl-CoA dehydrogenase (cHAD), Caenorhabditis elegans, WormBase WBGene00010035, GenBank CAA80153.1; as m1 with R204A and Y209A; Made by overlapping PCR from the wild type plasmid, ligated into pEXS-CG (BamHI, EcoRI); also called cHAD R204A/Y209A; source: E. coli BL21 (DE3), purified (same procedure as the wild type); not shown: GST, C-terminal, cleaved) MFTAKCAMQNIRNVAIVGSGQMGSGIAQVTASSGFNVMLADVNKKALDRAMKAISQSVTHLSKKQKGTDKEKSDFVTLTMSRIKTCNNVSTAVADADLIIEAAIENIDLKRGIFAQIEQSCKKDSILTTNTSSFLLEDVAKGLQDKTRFGGLHFFNPVPVMKLLEVIRSDDTSDETYATLIKFGTAVGKTTVACKDSPGFIVNALLIPAFFEAARMYERGDASMTDIDEAMKLGAGHPMGPFELADYIGLDTVKFVMDGWAAKYPEVQLFEASPLVDKLVAEGKLGRKTGDGFYSYKK	–	–	115.6 ± 24.5 µM	18 µmol/min/mg	10 s⁻¹	90000 M⁻¹ s⁻¹	–	binds
3-hydroxyacyl-CoA dehydrogenase from C. elegans, Y209A mutant (enzyme, Caenorhabditis elegans, 3-hydroxyacyl-CoA dehydrogenase (cHAD), Caenorhabditis elegans, WormBase WBGene00010035, GenBank CAA80153.1; as m1 with Y209A; Made by overlapping PCR from the wild type plasmid, ligated into pEXS-CG (BamHI, EcoRI); also called cHAD Y209A; source: E. coli BL21 (DE3), purified (same procedure as the wild type); not shown: GST, C-terminal, cleaved) MFTAKCAMQNIRNVAIVGSGQMGSGIAQVTASSGFNVMLADVNKKALDRAMKAISQSVTHLSKKQKGTDKEKSDFVTLTMSRIKTCNNVSTAVADADLIIEAAIENIDLKRGIFAQIEQSCKKDSILTTNTSSFLLEDVAKGLQDKTRFGGLHFFNPVPVMKLLEVIRSDDTSDETYATLIKFGTAVGKTTVACKDSPGFIVNRLLIPAFFEAARMYERGDASMTDIDEAMKLGAGHPMGPFELADYIGLDTVKFVMDGWAAKYPEVQLFEASPLVDKLVAEGKLGRKTGDGFYSYKK	–	–	50.4 ± 11.0 µM	30 µmol/min/mg	17 s⁻¹	300000 M⁻¹ s⁻¹	–	binds
